Results on three molecules are retold here after patent US20170114104A1 (KOREA ADVANCED INSTITUTE OF SCIENCE AND TECHNOLOGY, published 2017).

In assay [1] the target is T1, Biotinylated green fluorescent protein (biotin-GFP) (site-specifically biotinylated in the N-terminal biotinylation peptide (AP, SEQ ID NO: 4) by biotin ligase BirA).
T1 construct: Negatively charged GFP with the N-terminal AP biotinylation peptide
The experiment in a line: 15 % native-PAGE gel mobility shift, fluorescence of biotin-GFP [a].

In assay [2] the target is T1, Biotinylated green fluorescent protein …. Nature of the assay: native-PAGE off-rate under excess biotin, 45 °C.
Assay [3] has the same target. The experiment in a line: native-PAGE off-rate under excess biotin, 45 °C; reference streptavidin.
Assay [4] shares this target. Nature of the assay: native-PAGE off-rate under excess biotin, 37 °C.
Assay [5] deals with T2, Biotinylated protein G (biotin-protein G) (site-specifically biotinylated in the N-terminal biotinylation peptide (AP, SEQ ID NO: 4) by BirA; labelled with atto532).
T2 construct: About 12 kDa protein G with the N-terminal AP peptide; also called biotin-protein G-atto532
T2 chain: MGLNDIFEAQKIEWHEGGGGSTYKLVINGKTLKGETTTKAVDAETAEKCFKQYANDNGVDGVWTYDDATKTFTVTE
Nature of the assay: native-PAGE off-rate under excess biotin, 37 °C.

In assay [6] the target is T1, Biotinylated green fluorescent protein …. The experiment in a line: native-PAGE off-rate under excess biotin, 37 °C. This is another data set of the same source.

Where a chain is given by its changes, count along the chain named. Names may count otherwise.

B1: Monomeric rhizavidin with one mutation (1M: S69R) (designed binder)
chain: FDASNFKDFSSIASASSSWQNQSGSTMIIQVDSFGNVSGQYVNRAQGTGCQNSPYPLTGRVNGTFIAFRVGWNNSTENCNSATGWTGYAQVNGNNTEIVTSWNLAYEGGSGPAIEQGQDTFQYVPTTE
As for B1, the binding result in assay [1] is reported as “binds”.

B2: Monodin (MA) (designed binder)
chain: B1 chain with S23H, Q46E, A67D, R69S, G71K, A82N, G84Q, S101R, A105K, E115W
notes: Expressed from pET21a and purified on Ni-NTA (His6 tag); also called mRA E115W/S23H/Q46E
As for B2, the koff in assay [2] came out at 6.4e-05 s⁻¹; in assay [4], 2.3e-05 s⁻¹; in assay [5], 4.6e-05 s⁻¹. The “fold faster off-rate than tetrameric streptavidin” value in assay [3] was determined as 3.4 fold. The molecule also displayed a dissociation half-life in assay [6] of 8.3 h.

B3: Rhizavidin (RA) (other)
chain: B1 chain with R69S
notes: Homodimer; Purified on Ni-NTA; also called dimeric rhizavidin; wild type rhizavidin
As for B3, the koff in assay [2] is 6e-05 s⁻¹; in assay [4], 5e-05 s⁻¹; in assay [5] it was 3.2e-05 s⁻¹. In assay [6], this molecule yielded a dissociation half-life of 3.8 h.
